Molecular target: amyloid precursor protein (APP), full length (106 kDa), from MOG-G-UVW cell lysate (human) (UniProt P05067)
Test: competition sandwich ELISA on APP from MOG cell lysate; competitor: APP DuoSet detection antibody; irrelevant IgG at 20 µg/ml

UniProt P05067, sequence (P05067 18-770): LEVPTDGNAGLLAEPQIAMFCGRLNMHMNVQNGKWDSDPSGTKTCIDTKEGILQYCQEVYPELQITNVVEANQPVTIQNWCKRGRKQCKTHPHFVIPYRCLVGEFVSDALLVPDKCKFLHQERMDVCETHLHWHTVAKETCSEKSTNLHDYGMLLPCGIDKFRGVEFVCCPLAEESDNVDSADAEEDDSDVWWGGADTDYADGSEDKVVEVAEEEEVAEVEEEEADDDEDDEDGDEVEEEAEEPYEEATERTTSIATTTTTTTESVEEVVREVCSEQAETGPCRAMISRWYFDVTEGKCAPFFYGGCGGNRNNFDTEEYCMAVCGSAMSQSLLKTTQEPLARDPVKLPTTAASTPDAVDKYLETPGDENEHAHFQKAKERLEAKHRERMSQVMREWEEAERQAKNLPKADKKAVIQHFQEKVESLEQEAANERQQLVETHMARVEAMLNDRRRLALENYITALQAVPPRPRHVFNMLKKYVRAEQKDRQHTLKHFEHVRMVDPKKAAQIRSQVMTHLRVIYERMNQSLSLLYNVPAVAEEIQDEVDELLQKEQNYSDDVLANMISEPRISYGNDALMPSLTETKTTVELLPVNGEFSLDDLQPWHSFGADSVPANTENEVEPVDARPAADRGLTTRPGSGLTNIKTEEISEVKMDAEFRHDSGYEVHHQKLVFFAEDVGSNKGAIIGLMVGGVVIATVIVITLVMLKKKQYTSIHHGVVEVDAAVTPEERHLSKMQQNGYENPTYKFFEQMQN

% reduction of the binding of the second commercial antibody: 3.3%
Substance: irrelevant mouse IgG antibody (Perbio Science)

From US8337848
